Data: patent publication US20070281326A1 (QUARK PHARMACEUTICALS, published 2007)
Each block holds one binder with its values, some of them ahead of it.

Assays:
TSC2 [1] = molecular target: T1, TSC2 (human, UniProt P49815 1-1807, limits assumed); assay: pull-down from cell extract with 6XHis baits (FIG. 13)
T1 construct: TSC2 without a stated tag, endogenous or expressed from transfected cDNA in 293T cell extracts; also called tuberin; endogenous TSC2

TSC2 [2] = molecular target: T1, TSC2; assay: co-IP from transfected 293T extract, immunoblot (FIG. 11)
HA-tagged TSC2 = molecular target: T2, HA-tagged TSC2 (human, UniProt P49815 1-1807); assay: co-IP with anti-FLAG from CoCl2-treated 293T cells (FIG. 25)
T2 construct: Expressed in 293T cells; used as cell extract; also called HA-TSC2; full length HA-tagged TSC2; not shown: HA tag
T2 sequence (P49815 other isoform, or with tags, fused parts or gaps limits assumed): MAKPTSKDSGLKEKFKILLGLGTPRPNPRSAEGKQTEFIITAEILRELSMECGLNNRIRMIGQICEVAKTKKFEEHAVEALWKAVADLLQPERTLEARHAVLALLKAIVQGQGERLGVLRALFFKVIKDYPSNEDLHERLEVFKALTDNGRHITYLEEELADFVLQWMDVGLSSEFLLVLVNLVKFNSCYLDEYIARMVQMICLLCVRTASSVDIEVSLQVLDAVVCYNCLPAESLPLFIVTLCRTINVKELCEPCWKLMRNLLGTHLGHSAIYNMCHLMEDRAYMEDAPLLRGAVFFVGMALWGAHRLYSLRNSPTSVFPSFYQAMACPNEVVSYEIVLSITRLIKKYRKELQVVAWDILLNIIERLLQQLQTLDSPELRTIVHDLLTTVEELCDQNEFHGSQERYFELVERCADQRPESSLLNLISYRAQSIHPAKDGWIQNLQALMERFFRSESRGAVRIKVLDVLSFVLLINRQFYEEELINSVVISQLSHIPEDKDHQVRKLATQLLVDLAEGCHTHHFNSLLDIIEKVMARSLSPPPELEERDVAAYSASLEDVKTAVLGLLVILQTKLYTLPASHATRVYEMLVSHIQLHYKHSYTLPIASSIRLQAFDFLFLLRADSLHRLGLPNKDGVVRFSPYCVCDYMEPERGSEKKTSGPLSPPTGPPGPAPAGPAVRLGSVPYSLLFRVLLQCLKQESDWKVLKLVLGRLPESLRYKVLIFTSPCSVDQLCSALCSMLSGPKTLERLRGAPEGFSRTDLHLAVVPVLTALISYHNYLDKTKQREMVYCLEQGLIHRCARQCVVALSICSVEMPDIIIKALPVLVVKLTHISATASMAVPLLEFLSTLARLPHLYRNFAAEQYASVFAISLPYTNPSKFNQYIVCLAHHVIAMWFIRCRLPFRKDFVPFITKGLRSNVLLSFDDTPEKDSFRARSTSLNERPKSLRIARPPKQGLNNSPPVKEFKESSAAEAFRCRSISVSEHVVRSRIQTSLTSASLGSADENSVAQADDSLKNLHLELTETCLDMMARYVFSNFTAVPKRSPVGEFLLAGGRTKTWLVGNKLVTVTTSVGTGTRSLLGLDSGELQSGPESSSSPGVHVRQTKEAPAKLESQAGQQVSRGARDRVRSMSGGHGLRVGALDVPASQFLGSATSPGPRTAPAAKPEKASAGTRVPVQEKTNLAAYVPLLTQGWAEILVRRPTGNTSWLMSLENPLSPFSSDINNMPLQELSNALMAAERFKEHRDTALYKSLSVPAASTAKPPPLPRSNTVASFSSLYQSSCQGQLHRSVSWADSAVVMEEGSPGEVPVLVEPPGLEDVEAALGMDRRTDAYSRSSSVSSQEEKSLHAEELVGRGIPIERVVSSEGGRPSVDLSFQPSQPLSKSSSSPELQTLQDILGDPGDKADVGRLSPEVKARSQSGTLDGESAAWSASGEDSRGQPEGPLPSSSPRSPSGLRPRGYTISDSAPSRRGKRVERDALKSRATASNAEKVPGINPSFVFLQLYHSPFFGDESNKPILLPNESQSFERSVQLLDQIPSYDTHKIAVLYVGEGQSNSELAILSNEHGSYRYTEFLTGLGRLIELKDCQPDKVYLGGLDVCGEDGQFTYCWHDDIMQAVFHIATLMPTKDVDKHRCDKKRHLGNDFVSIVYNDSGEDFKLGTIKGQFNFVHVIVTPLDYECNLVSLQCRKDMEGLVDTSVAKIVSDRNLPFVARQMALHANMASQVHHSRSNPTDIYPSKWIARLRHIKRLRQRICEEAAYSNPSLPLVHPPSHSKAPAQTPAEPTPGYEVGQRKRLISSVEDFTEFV

[3] = molecular target: T3, TSC2 “N” fragment (a.a. 2-935), HA-tagged (human, UniProt P49815 2-935); assay: co-IP with anti-FLAG from 293T extract, anti-HA blot (FIG. 17)
T3 construct: also called HA-“N” fragment of TSC2; not shown: HA tag
T3 sequence (P49815 other isoform, or with tags, fused parts or gaps): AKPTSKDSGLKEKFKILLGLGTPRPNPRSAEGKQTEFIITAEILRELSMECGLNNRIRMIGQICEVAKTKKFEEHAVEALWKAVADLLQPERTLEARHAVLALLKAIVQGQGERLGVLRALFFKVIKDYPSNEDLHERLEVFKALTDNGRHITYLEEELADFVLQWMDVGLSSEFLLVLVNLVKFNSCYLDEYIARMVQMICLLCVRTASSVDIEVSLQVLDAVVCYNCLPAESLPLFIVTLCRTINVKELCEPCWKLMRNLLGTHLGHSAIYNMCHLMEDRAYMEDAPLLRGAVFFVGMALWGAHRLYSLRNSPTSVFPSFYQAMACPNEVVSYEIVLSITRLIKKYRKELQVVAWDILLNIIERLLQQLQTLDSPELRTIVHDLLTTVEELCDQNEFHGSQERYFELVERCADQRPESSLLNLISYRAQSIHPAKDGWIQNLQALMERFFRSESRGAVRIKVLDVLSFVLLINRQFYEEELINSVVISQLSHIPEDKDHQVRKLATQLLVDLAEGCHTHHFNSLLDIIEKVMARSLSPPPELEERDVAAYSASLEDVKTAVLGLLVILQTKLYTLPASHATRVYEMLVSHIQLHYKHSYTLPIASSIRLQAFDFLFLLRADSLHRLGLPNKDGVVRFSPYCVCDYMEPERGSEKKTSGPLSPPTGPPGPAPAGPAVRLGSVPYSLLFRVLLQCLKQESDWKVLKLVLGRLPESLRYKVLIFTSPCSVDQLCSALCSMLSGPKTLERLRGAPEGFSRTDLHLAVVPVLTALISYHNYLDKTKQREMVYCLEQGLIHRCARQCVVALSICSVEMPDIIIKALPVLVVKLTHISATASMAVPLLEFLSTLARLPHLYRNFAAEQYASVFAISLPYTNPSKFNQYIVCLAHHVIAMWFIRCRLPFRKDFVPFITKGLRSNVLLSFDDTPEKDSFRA

TSC2 [4] = molecular target: T1, TSC2; assay: summary of Example 6
[5] = molecular target: T4, HA-SV5-full length hRTP801 (human, UniProt Q9NX09 1-232); assay: co-IP with M2 anti-FLAG resin from CoCl2-treated 293T HEK extract (FIG. 21)
T4 construct: Expressed in 293T HEK cells; also called HA-full length hRTP801; HA-SV5-hRTP801; not shown: HA tag; SV5 tag
T4 sequence: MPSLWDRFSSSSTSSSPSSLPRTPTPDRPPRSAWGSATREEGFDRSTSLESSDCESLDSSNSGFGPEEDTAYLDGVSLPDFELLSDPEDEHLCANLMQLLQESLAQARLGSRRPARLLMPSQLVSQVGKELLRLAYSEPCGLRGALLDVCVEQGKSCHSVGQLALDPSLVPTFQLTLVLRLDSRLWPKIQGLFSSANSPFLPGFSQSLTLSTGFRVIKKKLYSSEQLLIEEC

T1 sequence (P49815 other isoform, or with tags, fused parts or gaps limits assumed): as the sequence (P49815 other isoform, or with tags, fused parts or gaps limits assumed) above

binding result (TSC2 [1]): no binding
B1: 6XHis hRTP801 N-fragment (other)
chain: MPSLWDRFSSSSTSSSPSSLPRTPTPDRPPRSAWGSATREEGFDRSTSLESSDCESLDSSNSGFGPEEDTAYLDGVSLPDFELLSDPE
notes: not shown: 6XHis tag

binding result (TSC2 [2]): binds
binding result (HA-tagged TSC2): binds
binding result [3]: binds
B2: FLAG-hRTP801 (other)
chain: T4 sequence
notes: Expressed by transient transfection in 293T cells; full length hRTP801 with FLAG tag; also called FLAG-full length hRTP801; FLAG-RTP801; not shown: FLAG tag

binding result (TSC2 [4]): binds
B3: hRTP801 (other)
chain: T4 sequence
notes: also called endogenous hRTP801; exogenous hRTP801

binding result [5]: binds
B4: FLAG-(N-C2)hRTP801 (other)
chain: MPSLWDRFSSSSTSSSPSSLPRTPTPDRPPRSAWGSATREEGFDRSTSLESSDCESLDSSNSGFGPEEDTAYLDGVSLPDFELLSDPEDEHLCANLMQLLQESLAQARLGSRRPARLLMPSQLVSQVGKELLRLAYSEPCGLRGALLDVCVEQGKSCHSVGQLALDPSLVPTFQLTLVLRLDSRLWPKIQGLFSS
notes: also called hRTP801 N-C2 fragment; hRTP801 N-C2 mutant; not shown: FLAG tag
